Here are results for one molecule from doi:10.1101/2023.04.24.538075 (bioRxiv, 2023).

The assay addresses T1, Cdc24-H (S. cerevisiae, UniProt P11433 1-854).
T1 sequence: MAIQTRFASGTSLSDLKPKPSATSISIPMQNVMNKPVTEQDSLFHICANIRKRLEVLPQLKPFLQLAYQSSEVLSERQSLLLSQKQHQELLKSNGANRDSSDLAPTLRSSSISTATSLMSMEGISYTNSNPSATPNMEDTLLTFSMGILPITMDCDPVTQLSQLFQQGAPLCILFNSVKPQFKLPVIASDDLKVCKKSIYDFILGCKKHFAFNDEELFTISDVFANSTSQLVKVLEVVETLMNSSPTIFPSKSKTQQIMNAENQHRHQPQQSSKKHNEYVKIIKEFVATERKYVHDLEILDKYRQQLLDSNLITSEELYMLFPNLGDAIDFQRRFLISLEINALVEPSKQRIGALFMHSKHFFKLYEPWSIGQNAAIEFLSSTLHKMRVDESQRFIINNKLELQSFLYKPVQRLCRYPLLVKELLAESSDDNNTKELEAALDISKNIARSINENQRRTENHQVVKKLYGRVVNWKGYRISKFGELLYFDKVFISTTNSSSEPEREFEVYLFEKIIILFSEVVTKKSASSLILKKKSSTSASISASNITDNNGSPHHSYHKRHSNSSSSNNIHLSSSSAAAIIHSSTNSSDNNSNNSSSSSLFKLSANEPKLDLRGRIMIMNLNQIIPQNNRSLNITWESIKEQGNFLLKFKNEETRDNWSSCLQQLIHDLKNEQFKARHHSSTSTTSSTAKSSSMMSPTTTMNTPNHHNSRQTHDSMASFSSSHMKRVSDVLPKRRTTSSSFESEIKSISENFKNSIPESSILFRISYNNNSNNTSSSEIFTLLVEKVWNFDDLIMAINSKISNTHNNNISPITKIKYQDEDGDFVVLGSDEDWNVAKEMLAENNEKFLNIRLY
Put plainly: pull-down.

B1: H-Bem1-F (natural protein)
chain: MLKNFKLSKRDSNGSKGRITSADISTPSHDNGSVIKHIKTVPVRYLSSSSTPVKSQRDSSPKNRHNSKDITSPEKVIKAKYSYQAQTSKELSFMEGEFFYVSGDEKDWYKASNPSTGKEGVVPKTYFEVFDRTKPSSVNGSNSSSRKVTNDSLNMGSLYAIVLYDFKAEKADELTTYVGENLFICAHHNCEWFIAKPIGRLGGPGLVPVGFVSIIDIATGYATGNDVIEDIKSVNLPTVQEWKSNIARYKASNISLGSVEQQQQQSITKPQNKSAKLVDGELLVKASVESFGLEDEKYWFLVCCELSNGKTRQLKRYYQDFYDLQVQLLDAFPAEAGKLRDAGGQWSKRIMPYIPGPVPYVTNSITKKRKEDLNIYVADLVNLPDYISRSEMVHSLFVVLNNGFDREFERDENQNNIKTLQENDTATFATASQTSNFASTNQDNTLTGEDLKLNKKLSDLSLSGSKQAPAQSTSGLKTTKIKFYYKDDIFALMLKGDTTYKELRSKIAPRIDTDNFKLQTKLFDGSGEEIKTDSQVSNIIQAKLKISVHDI
Take B1: the binding result is recorded as “binds”.
